Data set [1] concerns Immunoglobulin E (IgE), human myeloma (human). The data set can be described thus: DNA microarray fluorescence. The settings on record: Blocking buffer: 10 mg/mL casein, 0.1% Tween-20, 8.1 mM Na2HPO4 (printed N2HPO4), 1.1 mM KH2PO4, 2.7 mM KCl, 137 mM NaCl (138 mM also listed), 1 mM MgCl2, pH 7.
The test system is the same in data set [2]. Particulars: in solution; full-length clone; Blocking buffer: 10 mg/mL casein, 0.1% Tween-20, 8.1 mM Na2HPO4 (printed N2HPO4), 1.1 mM KH2PO4, 2.7 mM KCl, 137 mM NaCl (138 mM also listed), 1 mM MgCl2, pH 7.; cited from earlier work.

Where two headings read alike, the source gives them in different places.

For orientation: Kd means the free concentration of one partner at which half of the binding sites on the other are occupied at equilibrium, for simple one-to-one binding. With “CTACCTACGATCTGACTAGCCAATGAGTGTACCACGTTTATCCGTCCCTCCTAGTGGCGTGCTTACTCTCATGTAGTTCC [D 17.0]”, the dissociation constant (Kd) was > 100 nM in data set [1] and 9 nM in data set [2].

These data come from article PMC2444025.
